# Test results from the supplement of paper PMC12636428.
# Tested on: Saccharomyces cerevisiae
# Assay: transcriptional activation domain activity (GFP:mCherry ratio, weighted mean of sorted bins, harmonized to initial dataset scale) (arbitrary fluorescence ratio units); higher = stronger transcriptional activation
# Conditions: beta-estradiol 1 µM; induction time 4 h
# Summary of the method: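 In diploid yeast carrying a GFP reporter, barcoded protein tiles fused to an estradiol-inducible synthetic transcription factor were integrated at the URA3 locus. Cultures diluted 1:5 into SC with 1 uM beta-estradiol were kept at 30 °C for 4 hours, then sorted by GFP:mCherry ratio into 8 bins before barcode sequencing. Tiles with under 50 reads were excluded. The activation activity reported here is the read-weighted mean of bin median fluorescence, averaged across barcodes and linearly rescaled to the initial dataset.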
row,Sequence,transcriptional activation domain activity
1,LVLLFSLYPLLLPLLPLFPFLLSLFLPLPLNLPKIPAAFFFVFLNIYFLFSIL,27700
2,GSTHPRQVFDQLDDCSSILFSPLTTNTNNEFEGESDDFVHSPYLNSEADFSQI,75200
3,MSFLHCFFHVRYFPSNLFVIVIMFLLLFVHSFARGWRMEYAVSFLFNSLVLMY,61700
4,RKDALLKTSFGGTVFAVRQIGGDRFHGMPFVHLMVIVICLHWTWLRAVIFLGR,52800
5,SYLHSFLLSFLYPPSPLVSSPFTLLCSFPYFFSFLSFFFSFSFPYSSSCFVFH,45000
6,MLIIGRIARWYIHPIAIVWFYLLHVSHFLYFLLVAEFQPRYIHVYLYLYLLST,47400
7,YDTPSLQMMTIHKSFFGIVNDDTFHWKGLSKLSLDSVPGCRLLSILLLCSATL,73200
8,LLTEHFLLRVFAVFTAYIVELWMLKVAYLGYYFQLRQYLSEKSRMIYIGTCVY,63300
9,EKDKENDKGEKGEGEKKGENRRGRRRGGRGRGGGGDKDKEKEKDGGGGGGAKR,47000
10,MIFIYMIFIYVIFLFLYFYIFFYFLFFIFIIFICCYFIFLYYLFSYFPFFLFY,43500
11,MGVFILFAFLFFLMFVLLHFFLLLSFFLLSSLMGVYFFPHSMITYMFSFGLRS,44100
12,LEGPPLEKTGSDILQQVCNVLPSFEQSSKIITDFFNTELETNEVSEVLDKTKI,49900
13,FHFHLHSSISFPFPSLSLPFPFFPTSSSSSSPFLLHLFPFPSLFFPLLLLLLF,56400
14,LARVYIRVFVLRVFRLDDYFIVVAMLCSILACSIFLWVVHLGMGKHFFALPPE,63900
15,KESRKERHHDSDRRHKRRHRSREGGEGRDRDRDHRRHHRHGRDRSRSRERKLG,67400
16,KVNQRKENKNNKNDEDNDDDNDDEEGKEKDKEEEKKDKKKKNKKCKHKKNKNK,21700
17,TYTPPVEKPDVEEQSRTRLIGLAALNGASSSEGAFSSSTEFPRQVRVIVPALL,39800
18,SFSSIIILLALCLVLLAVFFYFPFFFCLFCPYVLCCHPIFPPTLSQVSILAYY,44700
19,PRTASRRAARSARPRRQSSPRPKGRRSNTRPSKRASVSPAKDSDASDGDDERE,19400
20,SSSAESSKASSSKKVASTKPKSKSAGTKAKPAAKKPAKKAAPKKKKPAKRAAK,34500
21,RKPEAAAEKAAEAPEAAGGEGTRRRASGRGRGRGRNGRGGRSARAGEEKKDET,29500

row,Sequence,transcriptional activation domain activity
1,VLGNLLCAILFRNELWMRFLYLVFIYGLRGVSWAPLSIKYAATSILQHVGGIH,29200
2,LSADYLCQYSGSLIGKHFKSLAQVMPFIIYDLVPKTVLNAWNVIGNLVVMLWH,46100
3,FTQFEDTWNLDVTPNFLPDLNDFDMERLDFSLADDFAQSIASFPYSPPETLLI,149000
4,STMHSNIGYIATLCLNLTLLLPLKDHPMVNNYVLVLVNSYWVLTGIWWFIFQQ,35000
5,AVPGEVTEAEADSDVKTDDAAAAPATDEAAKPKKKKKKFARKPRRKAAAPAEG,17100
6,MLRYFPTYRDEVVNAANYLNVVLSMDAFYYYQFCLNWTSTQLYDTWFNACFRI,59100
7,RLVVLYGASRIVVAIKRAHGGFDYTRRLSDEEPMVRIMTVVVSYSRLILISVY,53300
8,PKPKAKTPSKAKKKAEPIPKAKAAPKPKEKTTPNTPARRGRPRKEKAAAETPM,37500
9,ASSSDEEEQEVDDMETDSSKKRSHDETKEEEVEEEEERPKKTVKVEKPKEKKT,29200
10,ERSILWRAYLRLISHINSIYKIRIAYEWTEDFVIKYLWSAAGYCLISVPVLLT,54200
11,EWNRSVNSTYPLLYRGVDFLQKSLSWLKILRLSYLHPLQFFGCFGFGLLVVHI,60200
12,LQKYTQLSLLAKPLINLSNHSIQYQTLQSWYFKTLQSLEANRFRNFMLCHRIL,62300
13,IAILRLYSEPDVDLLRLSSQVLAASLLLDDHFICDIKNIRSVVAMIPRVLTLP,46800
14,MGPMMQQIQQPCGDCRGEGEIINAKDKCKACNARKVTQTRKVLEVHIDRGMKD,45700
15,SSATASAADAATTDAASGSLEARKKKDDKKKGDKKKGKKGDKKGGKKAASTTA,12500
16,EQGQNLQGLLEFMCFEVGPMFLDLIIAFVYVYTLFDLYMSMILLFVGLAYVWI,33200
17,SRLFDLQLNICLSFQVYWFRNLVDGFPLDIPPLHIASFFGLVEPLTALLKSLG,33100
18,MSPPEQSGGAPKHRACDECRARKLACSKEPDGCARCKRESQVCHYSAQKPMGR,< 6570
19,NLRVIELRFSLRFYRDVVFCRKLLRKHEVFVTIIKLLLCLLTLDIEGLKIKVG,46500
20,CIIFPHPFFSYSFFSFSPLFFFFFPSFLSFLSFLPSFLFFFSIVTPSSSSSTY,55100
21,ERERDRDRDRERDRDRDRERAREREHERNHERRKRRRERDRERRRGKSAAAAA,33800

row,Sequence,transcriptional activation domain activity
1,MLQVALYMRSSSLIISIWPRLSCSRFLLVLQLIVFSFHCQLVYSIYLMLLAFS,58300
2,ELLLLWYIYFLGIQYAQDFCQYKKMLILTEDTMWGWDLYSFYNSIVFHGTGVP,75000
3,IFFVLPVFFFFHPPPFVFLPPSSFLPFLLLLLLLPLVLFISPPFSPSVAFYFT,54100
4,SFPIEGLYCLIKSLLKLKNLSLHGKIWWGDLKMLLPLLSKLDFWGIGELLLFD,67000
5,RFVTNILVILSDRVNMEQLLKRIRKKAADFYHFTDLWQWCCAQFVKLLRKVYN,55100
6,VKKKGGSGGIDAGDIWGCNRRGSNFVEVRSMLAKEGGRLLVNVLRDMIDGTVR,65900
7,DDNAGDGSLSSVVKVWLEGLTPSGRVEIFGRRNPPPVVRFLLLLVVSRRIGSL,58600
8,GHGKLGYFTGKAVASIYRFILSSLHFASIFILLGKPTSSFGFIYLVIMLQFWC,50200
9,SCLMWVVSCALFMCGQLVFFDLNYYWNLTLVSYFLELSIVLVLMFMKLWLSKR,30400
10,DSGGDRSTSPDSDRDKENKKASDKTEDSDKETQENGEEEKGGEKERESKKGEK,16700
11,KSPVKRKPKAEGASADGSPKKRKSKGEAADADGTPKKRGRKPKKAEPQPEIQG,33700
12,MQFSLLFFFCLLFPPLLLFLCSFFFSFLFLEIFGFVNCLGFRRSHFQRQALLV,54500
13,MFCLRSWLPLLFIPTNAPPIFVFLFFVCTFFLSRPCVYCSFLLAILFLTSCYW,65100
14,YSLNIFIFGNGRYGSTIQANLHGLRSFIRLVPKDCLALIRHLHLHIFFSGLPD,54800
15,LDLEHLFGIDIEQRFQSYVMTQQAWLMPYLARIYYSHISLGVCFLVYIYTFLP,44100
16,RLPNEWGWVLNVHLCIFYTIAFCFSVYQFCLDVIIGFPQMPWLESLSLLLPVL,37500
17,SLTREFNDIGLLTELHYVQGIETLIKIGTRFSMVAALVVYRNFRWHLSSAIPP,48200
18,EQLCMPIRRNDMRRRVELVRRCLLAALPSLPFWNEVCLWSTLNVFMSLLQDFF,82700
19,GDDETDAPAKPKEGEDEKKPSSASPEDDLRSSRRSHKKREPGHRDRDRERDRD,15300
20,YFWVLGAIPYFVFHSAFCLLWSLFFWFSCWYLSFKILLFRCFFFLFYYSMPSQ,55200
21,SMLKIARQSPRGIRDSKGGEGFLLLESGDQSTNIVTVVRIKLLMEKLYTLPEL,32200

row,Sequence,transcriptional activation domain activity
1,TMSMLCLEGFIIIYLLRETTLSFLDIIRCFSSMDPVALKLFVRCFLYTLVMCG,77500
2,DNYILNNENDDGLDNLLGMDYYNIDDLLTQELRDLDIPLVPSPKTGDGSSDKK,109000
3,QLAIELSAFADDSFIFPDEDKPSNNNNNSNNGNDDHSNHDVLHEDPSTNNRQR,16300
4,MPNAGIWCARWFIPLLFLPLPSASPYFLTVFIFSLIVQARPCFYCILMLTALF,58200
5,PKADGDAEPKPKAPRGTKRKAAEETNGAEEGGEAPAAKKAKPASKAKPASKAA,16400
6,LLHAAGVHYGYGLLLLKCDILLRLLMFISFLLSSQFLLSVISPLLFFPSFVLM,54700
7,DKEAKADVEEKPKTPRGRKRKTAEEVNGEEAQTEKEPPVKKTKPASKAKPASK,42600
8,LIHLMNIGQVSILFIHRFLYGLVPLFEITTCAFWPLLVSLWHLNFVLMYCIMF,66000
9,SSLMQYTLGATIGFVQSLEVRTQVLHLLVKLFQSLPQPDHFSIAQCYVYLNAP,57200
10,KLAKKEPAAAKPKSEKPKAEKKTTEKKPVAKKATTTKKPAAAKPKAAPKPKTA,27000
11,KIRTNALLSSFLVSLTEGAANGTRFASPEGAVTSALVRIFLRLIWLWTATGRR,57200
12,DTIYIFHALLVVFWVSLMQEPAFPYKLLIPILYITILLIPFTSQVFLPAVPVL,49400
13,MVLLCAYERGLGLDIGVSGFVSFFSFLTLFFFFPIYLFFSLLYFLCVCLLCCA,49700
14,LYVSLHAVVGNVAEFYFVRYGLALVCALCQTIMFQVTSVTLNGRIGLFFLIAT,45400
15,TEQSVFVGLLLYRLKYPANLVSLVLKLSAVQSTLFKVVFAVYLLVWWGIKQAR,63100
16,MHRPVCSGQSPPFFSPTSPIHFILPFLFSIFSFPHGAGVSMHIGRLVLLFFFF,59300
17,PLSLLIYFLEWIGPLNLWIRCLCKTSLIEFYFRLLVILLMPFLFVFWHIIGLG,40100
18,RIFGLQSPQLVYVESMARVRKLSLSGKILRLLVDRFFVQWEALADGKTGSRWW,61100
19,QKPEAAANATAVGEKKEVEEELKKVVEAKPEGKTEAGPAKEEGKAAEAAPAKA,52800
20,LGGNSGRATPGGGESRASTRKSKSKGAAKSRSRSPSRGRNRAGSKKKAGAAAT,38700
